Test system: CC(=O)N[C@H]1[C@@H]2OC[C@@H](O2)[C@@H](O)[C@@H]1O[C@H](C)C(=O)N[C@@H](C)C(=O)N[C@H](CCC(=O)N[C@@H](CCC[C@@H](N)C(=O)O)C(=O)O)C(=O)O
Experiment: LC/MS of substrate consumption or product formation, nonlinear regression
Assay type: biochemical, Citrobacter freundii
Settings: pH 7.0, hydrolysis at lactyl amide bond

Substance: AmpD (Citrobacter freundii)
- Km: 360 ± 10 µM
- kcat: 25 ± 2 s⁻¹
- kcat/Km: 69000 ± 4000 M⁻¹ s⁻¹

From paper PMC2845155
